Here are results for one molecule from publication PMC9935901 (Signal Transduction and Targeted Therapy, 2023).

In this assay the target is T1, GST-tagged full-length β-catenin (UniProt P35222 1-781).
T1 construct: β-catenin, full length; also called GST-β-catenin
T1 sequence (looked up): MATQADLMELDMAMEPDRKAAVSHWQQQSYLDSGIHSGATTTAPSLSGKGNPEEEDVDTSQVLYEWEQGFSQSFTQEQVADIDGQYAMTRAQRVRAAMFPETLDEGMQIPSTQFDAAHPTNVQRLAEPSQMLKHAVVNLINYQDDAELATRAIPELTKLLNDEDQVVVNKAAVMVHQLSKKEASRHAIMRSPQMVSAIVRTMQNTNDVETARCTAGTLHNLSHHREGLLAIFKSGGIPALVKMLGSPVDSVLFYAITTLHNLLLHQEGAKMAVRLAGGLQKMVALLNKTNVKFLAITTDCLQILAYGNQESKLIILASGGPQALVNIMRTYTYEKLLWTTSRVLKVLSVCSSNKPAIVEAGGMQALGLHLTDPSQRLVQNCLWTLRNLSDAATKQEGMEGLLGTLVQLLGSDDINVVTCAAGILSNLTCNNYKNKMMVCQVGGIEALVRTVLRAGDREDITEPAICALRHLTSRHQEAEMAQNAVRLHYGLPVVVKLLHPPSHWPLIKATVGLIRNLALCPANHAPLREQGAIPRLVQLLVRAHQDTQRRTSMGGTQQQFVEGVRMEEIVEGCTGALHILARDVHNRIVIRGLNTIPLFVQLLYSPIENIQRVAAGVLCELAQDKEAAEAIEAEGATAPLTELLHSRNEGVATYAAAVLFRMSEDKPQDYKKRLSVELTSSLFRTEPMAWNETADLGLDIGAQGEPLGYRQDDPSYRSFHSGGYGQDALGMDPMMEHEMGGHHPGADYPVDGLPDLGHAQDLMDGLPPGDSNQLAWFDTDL
The experiment in a line: pull-down; purified GST-tagged full-length β-catenin incubated with purified His-tagged FAM83A, pulled down by GST beads, western blotting. The conditions noted are these: both partners purified. For orientation: In western blotting, separated proteins are transferred to a membrane and probed.

B1: His-tagged FAM83A (natural protein, UniProt Q86UY5 1-434, looked up)
chain: MSRSRHLGKIRKRLEDVKSQWVRPARADFSDNESARLATDALLDGGSEAYWRVLSQEGEVDFLSSVEAQYIQAQAREPPCPPDTLGGAEAGPKGLDSSSLQSGTYFPVASEGSEPALLHSWASAEKPYLKEKSSATVYFQTVKHNNIRDLVRRCITRTSQVLVILMDVFTDVEIFCDILEAANKRGVFVCVLLDQGGVKLFQEMCDKVQISDSHLKNISIRSVEGEIYCAKSGRKFAGQIREKFIISDWRFVLSGSYSFTWLCGHVHRNILSKFTGQAVELFDEEFRHLYASSKPVMGLKSPRLVAPVPPGAAPANGRLSSSSGSASDRTSSNPFSGRSAGSHPGTRSVSASSGPCSPAAPHPPPPPRFQPHQGPWGAPSPQAHLSPRPHDGPPAAVYSNLGAYRPTRLQLEQLGLVPRLTPTWRPFLQASPHF
notes: FAM83A; also called His-FAM83A
In the case of B1, the binding result is given as “binds”.
